Experimental data as given in patent US20220251184A1.

Key:
[1] = molecular target: human BMP6 (R&D Systems, Cat #507-BP) (human) (UniProt P22004); experiment: SPR (Biacore 3000), premix of 400 nM mAb and 10 nM hBMP6 over immobilised hActR2B-hFc (competitor), 25 C
[2] = molecular target: mouse BMP6 (R&D Systems, Cat #6325-BM) (mouse) (UniProt P20722); experiment: SPR (MASS-1), mAb captured on anti-human Fc, mBMP6 in solution, 25 C
[3] = molecular target: human BMP6 (R&D Systems, Cat #507-BP) (human) (UniProt P22004); experiment: SPR (Biacore 3000), premix of 400 nM mAb and 10 nM hBMP6 over immobilised hActR2A-hFc (competitor), 25 C
[4] = molecular target: mouse BMP6 (R&D Systems, Cat #6325-BM) (mouse) (UniProt P20722); experiment: SPR (MASS-1), mAb captured on anti-human Fc, mBMP6 in solution, 37 C
[5] = molecular target: human BMP6 (R&D Systems, Cat #507-BP) (human) (UniProt P22004); experiment: SPR (Biacore 3000), blocking of hBMP6 binding to immobilised hActR2B-hFc (competitor) by 400 nM mAb, 25 C
[6] = molecular target: human BMP6 (R&D Systems, Cat #507-BP) (human) (UniProt P22004); experiment: SPR (Biacore 3000), blocking of hBMP6 binding to immobilised hActR2A-hFc (competitor) by 400 nM mAb, 25 C
[7] = molecular target: human BMP6 (R&D Systems, Cat #507-BP) (human) (UniProt P22004); experiment: SPR (MASS-1), mAb captured on anti-human Fc, hBMP6 in solution, 25 C
[8] = molecular target: human BMP6 (R&D Systems, Cat #507-BP) (human) (UniProt P22004); experiment: SPR (MASS-1), mAb captured on anti-human Fc, hBMP6 in solution, 37 C
[9] = molecular target: human BMP6 (R&D Systems, Cat #507-BP) (human) (UniProt P22004); experiment: SPR (Biacore 3000), premix of 400 nM mAb and 10 nM hBMP6 over immobilised hHJV-hFc (competitor), 25 C
[10] = molecular target: human BMP6 (R&D Systems, Cat #507-BP) (human) (UniProt P22004); experiment: SPR (Biacore 3000), blocking of hBMP6 binding to immobilised hHJV-hFc (competitor) by 400 nM mAb, 25 C

Sequence of human BMP6 (R&D Systems, Cat #507-BP) (human) (P22004 375-513 limits assumed): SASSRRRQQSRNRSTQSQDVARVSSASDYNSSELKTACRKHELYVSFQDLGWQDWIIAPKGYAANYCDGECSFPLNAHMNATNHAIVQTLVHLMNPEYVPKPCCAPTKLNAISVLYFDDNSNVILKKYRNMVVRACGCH
Sequence of mouse BMP6 (R&D Systems, Cat #6325-BM) (mouse) (P20722 372-510 limits assumed): as the sequence (P22004 375-513 limits assumed) above, with A21S, V23G, S25G, A26S, S31G, R39K counted along it

400 nM mAb + 10 nM hBMP-6 Binding (RU) [1]: 187 RU | 60 nM mBMP6 Bound (RU) [2]: 3 RU | 400 nM mAb + 10 nM hBMP-6 Binding (RU) [3]: 246 RU | 60 nM mBMP6 Bound (RU) [4]: 3 RU | % Blocking [5]: 25% | % Blocking [6]: 43% | 60 nM hBMP6 Bound (RU) [7]: 2 RU | 60 nM hBMP6 Bound (RU) [8]: 2 RU | 400 nM mAb + 10 nM hBMP-6 Binding (RU) [9]: 299 RU | % Blocking [10]: 41%
Substance: Isotype Control mAb (antibody)
